Results reported in publication doi:10.1101/2024.04.19.590210.

Molecular target: TF-HIS-BBX13 (BBX13/COL15) (Arabidopsis thaliana, UniProt Q9C7E8 1-433)
Experiment: EMSA

Sequence of TF-HIS-BBX13 (BBX13/COL15) (Q9C7E8 whole entry): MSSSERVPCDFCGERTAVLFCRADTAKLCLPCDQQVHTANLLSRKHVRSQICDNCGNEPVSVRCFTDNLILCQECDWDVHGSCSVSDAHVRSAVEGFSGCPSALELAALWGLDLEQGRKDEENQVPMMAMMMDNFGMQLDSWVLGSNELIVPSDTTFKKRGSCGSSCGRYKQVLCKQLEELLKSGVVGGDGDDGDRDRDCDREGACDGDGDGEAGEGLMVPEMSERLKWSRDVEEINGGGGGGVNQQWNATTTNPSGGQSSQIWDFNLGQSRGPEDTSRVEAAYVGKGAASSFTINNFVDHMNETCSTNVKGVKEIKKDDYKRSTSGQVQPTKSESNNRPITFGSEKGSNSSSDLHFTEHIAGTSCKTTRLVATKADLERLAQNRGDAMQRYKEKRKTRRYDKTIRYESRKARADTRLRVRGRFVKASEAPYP

B1: FT-CORE2 EMSA probe (FT Biot) (dsDNA)
DNA 1: ATCAATAGACAAGAAAAAGATTGTGGTTATGATTTCACCGACCCGAGTTAATG
DNA 2: CATTAACTCGGGTCGGTGAAATCATAACCACAATCTTTTTCTTGTCTATTGAT
  binding result: binds
